Source: patent publication US20160139131A1 (BIOALLIANCE C V, published 2016)
No end group written: not given here.

Tests used:
[1] = target: CD43 expressed on the surface of COLO 205 colorectal cancer cells (human) (UniProt P16150); experiment: flow cytometry on COLO 205 cells
[2] = target: CD43 on human peripheral T cells (human) (UniProt P16150); experiment: flow cytometry on peripheral T cells
[3] = target: CD43 expressed on the surface of COLO 205 colorectal cancer cells (human) (UniProt P16150); experiment: cell-based or functional assay
[4] = target: CD43 on Jurkat cells (lymphoblastoid leukemia cell line; ATCC TIB-152) (human) (UniProt P16150); experiment: flow cytometry on Jurkat cells
[5] = target: CD43 expressed on the surface of NCI-N87 gastric cancer cells (human) (UniProt P16150); experiment: flow cytometry on NCI-N87 cells
[6] = target: T1, 5F1-01-2-21 (also: fused to unnamed carrier protein, order not given here); experiment: sandwich ELISA, 5F1 coated, peptide-carrier fusion
T1 construct: Tested as a fusion to an unnamed carrier protein; not shown: the unnamed carrier protein to which the 12-mer was fused (and any linker to it)
T1 peptide: WPIDLMSETPIL
Protocol: (§1) To further confirm the tripeptide epitope that antibody 5F1 binds, Sandwich ELISA was performed. 96-well microtiter plates were coated with antibody (5F1 or control antibody 9E10) with 50 μl per well at the concentration of 1 μg/ml over night at 4° C. Plates were blocked by incubation with 0.25% of BSA in PBS (150 μl/well) for 1 hour at 37° C. Plates were then incubated with fusion proteins containing various fragments of polypeptides fused to a carrier protein for 2 hours at room temperature. After washing 4 times with PBS containing 0.05% of Tween 20, plates were then incubated with carrier protein-specific antibody at 2 μg/ml for 1.5 hours at room temperature. After incubation, plates were washed 4 times with PBST. 50 μl of 1 to 3000 diluted Goat anti-carrier protein-specific antibody conjugated with HRP was then added to each well and the plates were incubated for 1 hour at 37° C. Enzyme reaction was carried out by adding substrate of the HRP enzyme to determine the reactivity of the designated polypeptide to these to these two antibodies (5F1 and 9E10). […] Monoclonal antibody 5F1 recognized a tripeptide WPI epitope structure.

[7] = target: T2, 5F1-01-2-18 (also: fused to unnamed carrier protein); experiment: sandwich ELISA, 5F1 coated, peptide-carrier fusion
T2 construct: Tested as a fusion to an unnamed carrier protein; not shown: the unnamed carrier protein to which the 12-mer was fused (and any linker to it)
T2 peptide: WPISGKHSFWSL
Protocol: as §1

[8] = target: T3, 5F1-01-2-17 (also: fused to unnamed carrier protein); experiment: sandwich ELISA, 5F1 coated, peptide-carrier fusion
T3 construct: Tested as a fusion to an unnamed carrier protein; not shown: the unnamed carrier protein to which the 12-mer was fused (and any linker to it)
T3 peptide: WPILDHAVSRPS
Protocol: as §1

[9] = target: T4, 5F1-01-2-16 (also: fused to unnamed carrier protein); experiment: sandwich ELISA, 5F1 coated, peptide-carrier fusion
T4 construct: Tested as a fusion to an unnamed carrier protein; not shown: the unnamed carrier protein to which the 12-mer was fused (and any linker to it)
T4 peptide: WPIDIPYAWDFS
Protocol: as §1

[10] = target: T5, 5F1-01-2-13 (also: fused to unnamed carrier protein); experiment: sandwich ELISA, 5F1 coated, peptide-carrier fusion
T5 construct: Tested as a fusion to an unnamed carrier protein; not shown: the unnamed carrier protein to which the 12-mer was fused (and any linker to it)
T5 peptide: WPISPQPGARPV
Protocol: as §1

[11] = target: T6, 5F1-01-2-09 (also: fused to unnamed carrier protein); experiment: sandwich ELISA, 5F1 coated, peptide-carrier fusion
T6 construct: Tested as a fusion to an unnamed carrier protein; not shown: the unnamed carrier protein to which the 12-mer was fused (and any linker to it)
T6 peptide: WPIAPNRYLLSS
Protocol: as §1

[12] = target: T7, 5F1-01-2-06 (also: fused to unnamed carrier protein); experiment: sandwich ELISA, 5F1 coated, peptide-carrier fusion
T7 construct: Tested as a fusion to an unnamed carrier protein; not shown: the unnamed carrier protein to which the 12-mer was fused (and any linker to it)
T7 peptide: WPIPPEVEPFKH
Protocol: as §1

[13] = target: T8, 5F1-01-2-22; experiment: sandwich ELISA, 5F1 coated, peptide-carrier fusion
T8 construct: Tested as a fusion to an unnamed carrier protein
T8 peptide: WPITNSDSRITW
Protocol: as §1

[14] = target: T9, 5F1-01-2-14; experiment: sandwich ELISA, 5F1 coated, peptide-carrier fusion
T9 construct: Tested as a fusion to an unnamed carrier protein
T9 peptide: WPIHSAHVRYTT
Protocol: as §1

[15] = target: T10, 5F1-01-2-04 (also: fused to unnamed carrier protein); experiment: sandwich ELISA, 5F1 coated, peptide-carrier fusion
T10 construct: Tested as a fusion to an unnamed carrier protein; not shown: the unnamed carrier protein to which the 12-mer was fused (and any linker to it)
T10 peptide: WPIANHENALSA

[16] = target: T11, 5F1-01-2-23; experiment: sandwich ELISA, 5F1 coated, peptide-carrier fusion
T11 construct: Tested as a fusion to an unnamed carrier protein
T11 peptide: WPIPTLMELPSA

[17] = target: T12, 9F9-01-03-24; experiment: sandwich ELISA, 5F1 coated, peptide-carrier fusion
T12 construct: Tested as a fusion to an unnamed carrier protein
T12 peptide: AETDYDPDHFTP

[18] = target: T13, 9F9-01-03-18; experiment: sandwich ELISA, 5F1 coated, peptide-carrier fusion
T13 construct: Tested as a fusion to an unnamed carrier protein
T13 peptide: DARYSHDPAWPY

[19] = target: T14, 9F9-01-03-17; experiment: sandwich ELISA, 5F1 coated, peptide-carrier fusion
T14 construct: Tested as a fusion to an unnamed carrier protein
T14 peptide: AGQKWDPEWPHS

[20] = target: T15, 9F9-01-03-21; experiment: sandwich ELISA, 5F1 coated, peptide-carrier fusion
T15 construct: Tested as a fusion to an unnamed carrier protein
T15 peptide: YDHHWTNPPTQK

[21] = target: T16, 9F9-01-03-25; experiment: sandwich ELISA, 5F1 coated, peptide-carrier fusion
T16 construct: Tested as a fusion to an unnamed carrier protein
T16 peptide: EPNMDPNWASPS

[22] = target: CD43 expressed on the surface of COLO 205 colorectal cancer cells (human) (UniProt P16150); experiment: flow cytometry on COLO 205 cells; signal of biotinylated 5F1 (1 microgram/ml, competitor) with unlabeled antibody at 200 microgram/ml
[23] = target: CD43 expressed on the surface of COLO 205 colorectal cancer cells (human) (UniProt P16150); experiment: flow cytometry on COLO 205 cells; signal of biotinylated 5F1 (1 microgram/ml, competitor) with unlabeled antibody at 7.4 microgram/ml
[24] = target: CD43 expressed on the surface of COLO 205 colorectal cancer cells (human) (UniProt P16150); experiment: flow cytometry on COLO 205 cells; signal of biotinylated 5F1 (1 microgram/ml, competitor) with unlabeled antibody at 0.03 microgram/ml
[25] = target: CD43 expressed on the surface of COLO 205 colorectal cancer cells (human) (UniProt P16150); experiment: flow cytometry on COLO 205 cells; signal of biotinylated 5F1 (1 microgram/ml, competitor) with unlabeled antibody at 0.09 microgram/ml
[26] = target: CD43 expressed on the surface of COLO 205 colorectal cancer cells (human) (UniProt P16150); experiment: flow cytometry on COLO 205 cells; signal of biotinylated 5F1 (1 microgram/ml, competitor) with unlabeled antibody at 0.82 microgram/ml
[27] = target: CD43 expressed on the surface of COLO 205 colorectal cancer cells (human) (UniProt P16150); experiment: flow cytometry on COLO 205 cells; signal of biotinylated 5F1 (1 microgram/ml, competitor) with unlabeled antibody at 2.46 microgram/ml
[28] = target: CD43 expressed on the surface of COLO 205 colorectal cancer cells (human) (UniProt P16150); experiment: flow cytometry on COLO 205 cells; signal of biotinylated 5F1 (1 microgram/ml, competitor) with unlabeled antibody at 22.2 microgram/ml
[29] = target: CD43 expressed on the surface of COLO 205 colorectal cancer cells (human) (UniProt P16150); experiment: flow cytometry on COLO 205 cells; signal of biotinylated 5F1 (1 microgram/ml, competitor) with unlabeled antibody at 66.7 microgram/ml
[30] = target: CD43 expressed on the surface of COLO 205 colorectal cancer cells (human) (UniProt P16150); experiment: flow cytometry on COLO 205 cells; signal of biotinylated 5F1 (1 microgram/ml, competitor) with unlabeled antibody at 0.273 microgram/ml

CD43 expressed on the surface of COLO 205 colorectal cancer cells (human), sequence (P16150 20-400): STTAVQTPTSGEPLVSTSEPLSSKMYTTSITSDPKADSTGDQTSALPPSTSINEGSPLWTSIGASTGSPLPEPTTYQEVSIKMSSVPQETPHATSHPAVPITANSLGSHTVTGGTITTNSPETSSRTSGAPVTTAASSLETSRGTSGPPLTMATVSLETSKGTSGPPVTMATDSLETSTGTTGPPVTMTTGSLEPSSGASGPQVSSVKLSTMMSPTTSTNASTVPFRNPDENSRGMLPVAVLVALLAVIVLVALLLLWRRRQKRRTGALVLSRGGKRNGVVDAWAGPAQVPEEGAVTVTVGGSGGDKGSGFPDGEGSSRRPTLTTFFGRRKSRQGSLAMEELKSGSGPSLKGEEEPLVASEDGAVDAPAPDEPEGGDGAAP
CD43 on human peripheral T cells (human), sequence (P16150 20-400): as above
CD43 expressed on the surface of NCI-N87 gastric cancer cells (human), sequence (P16150 20-400): as above
CD43 on Jurkat cells (lymphoblastoid leukemia cell line; ATCC TIB-152) (human), sequence (P16150 20-400): as above

With “MEM-59 (anti-CD43; Biovendor, Candler, NC) (antibody)” the % of Binding [1] was greater than 70% and the % of Binding [2] was greater than 80%.

B1: monoclonal antibody 5F1 (antibody, V domains shown)
VH: EVQLQQSGPELVKPGASVRMSCTASGYTFTSYVMHWIKQKPGQGLDWIGYINPYNGGTQYNEKFKGKATLTSDKSSSTAYMELSSLTSEDSAVYYCARRTFPYYFDYWGQGTTLTVSS
VL: DVLMTQTPLSLPVSLGDQASISCRSSQSILHSNGNTYLEWYLQKPGQSPKLLIYKVSNRFSGVPDRFSGSGSGTDFTLKISRVEAEDLGVYYCFQGSHAPLTFGAGTKLELK
notes: also called m5F1; m133-5F1
B1 was tested, and the % Apoptosis (annexin-V+) [3] was greater than 40%, the % of Binding [4] was less than 10% and the % of Binding [5] was greater than 80%. The % of Binding [1] was greater than 80%, the % of Binding [2] was less than 10% and the binding result [6] was “binds”. B1: binds [7]; binds [8]; binds [9]. B1: binds [10]; binds [11]; binds [12]. B1: binds [13]; binds [14]; binds [15]. B1: binds [16]; no binding [17]; no binding [18]. B1: no binding [19]; no binding [20]; no binding [21]. It also gave a Mean Fluorescence Intensity [22] of 9.78, a Mean Fluorescence Intensity [23] of 129 and a Mean Fluorescence Intensity [24] of 888. It also gave a Mean Fluorescence Intensity [25] of 825, a Mean Fluorescence Intensity [26] of 1000 and a Mean Fluorescence Intensity [27] of 733. For the same molecule, the Mean Fluorescence Intensity [28] was 21.7, the Mean Fluorescence Intensity [29] was 60.3 and the Mean Fluorescence Intensity [30] was 1030.
